Measurements published in patent US20260176319A1 (KALLYOPE, published 2026).
Starred links: 1 amine or outer side, 2 acyl side, 3 side chain; linkers in the order of their positions; H or OH if unused. Non-standard residues stand in square brackets, D forms with d. No end group written: not given here. *: point of attachment. Trp(7-F) = N[C@@H](Cc1c[nH]c2c(F)cccc12)C(=O)O; Trp(7-Me) = Cc1cccc2c(C[C@H](N)C(=O)O)c[nH]c12; C20 diacid = O=C(O)CCCCCCCCCCCCCCCCCCC(=O)*; d(γGlu) = O=C(O)[C@@H](CCC(=O)[*:2])N[*:1]; C18 diacid = O=C(O)CCCCCCCCCCCCCCCCC(=O)*; γGlu = O=C(O)[C@H](CCC(=O)[*:2])N[*:1]; Palmitoyl = CCCCCCCCCCCCCCCC(=O)*; 3Pal = N[C@@H](Cc1cccnc1)C(=O)O; Nle = CCCC[C@H](N)C(=O)O; AEEA = NCCOCCOCC(=O)O; Aib = CC(C)(N)C(=O)O; βAla = NCCC(=O)O; Sar = CNCC(=O)O

B1: Peptide 139 (peptide)
peptide: {C18 diacid}-[γGlu][AEEA][AEEA]GDHW[dA]V[dA]HL[Nle]-NH2
SMILES: CCCC[C@H](NC(=O)[C@H](CC(C)C)NC(=O)[C@H](Cc1c[nH]cn1)NC(=O)[C@@H](C)NC(=O)[C@@H](NC(=O)[C@@H](C)NC(=O)[C@H](Cc1c[nH]c2ccccc12)NC(=O)[C@H](Cc1c[nH]cn1)NC(=O)[C@H](CC(=O)O)NC(=O)CNC(=O)COCCOCCNC(=O)COCCOCCNC(=O)CC[C@H](NC(=O)CCCCCCCCCCCCCCCCC(=O)O)C(=O)O)C(C)C)C(N)=O
B2: Peptide 150 (peptide)
peptide: {C20 diacid}-[γGlu][AEEA][AEEA]GRHWAV[dA]HL[Nle]-NH2
SMILES: CCCC[C@H](NC(=O)[C@H](CC(C)C)NC(=O)[C@H](Cc1c[nH]cn1)NC(=O)[C@@H](C)NC(=O)[C@@H](NC(=O)[C@H](C)NC(=O)[C@H](Cc1c[nH]c2ccccc12)NC(=O)[C@H](Cc1c[nH]cn1)NC(=O)[C@H](CCCNC(=N)N)NC(=O)CNC(=O)COCCOCCNC(=O)COCCOCCNC(=O)CC[C@H](NC(=O)CCCCCCCCCCCCCCCCCCC(=O)O)C(=O)O)C(C)C)C(N)=O
B3: Peptide 144 (peptide)
peptide: {C18 diacid}-[γGlu][AEEA][AEEA]FN[3Pal]WAV[βAla]HL[Nle]-NH2
SMILES: CCCC[C@H](NC(=O)[C@H](CC(C)C)NC(=O)[C@H](Cc1c[nH]cn1)NC(=O)CCNC(=O)[C@@H](NC(=O)[C@H](C)NC(=O)[C@H](Cc1c[nH]c2ccccc12)NC(=O)[C@H](Cc1cccnc1)NC(=O)[C@H](CC(N)=O)NC(=O)[C@H](Cc1ccccc1)NC(=O)COCCOCCNC(=O)COCCOCCNC(=O)CC[C@H](NC(=O)CCCCCCCCCCCCCCCCC(=O)O)C(=O)O)C(C)C)C(N)=O
B4: Peptide 141 (peptide)
peptide: {C18 diacid}-[γGlu][AEEA][AEEA]RRHWAV[dA]HL[Nle]-NH2
SMILES: CCCC[C@H](NC(=O)[C@H](CC(C)C)NC(=O)[C@H](Cc1c[nH]cn1)NC(=O)[C@@H](C)NC(=O)[C@@H](NC(=O)[C@H](C)NC(=O)[C@H](Cc1c[nH]c2ccccc12)NC(=O)[C@H](Cc1c[nH]cn1)NC(=O)[C@H](CCCNC(=N)N)NC(=O)[C@H](CCCNC(=N)N)NC(=O)COCCOCCNC(=O)COCCOCCNC(=O)CC[C@H](NC(=O)CCCCCCCCCCCCCCCCC(=O)O)C(=O)O)C(C)C)C(N)=O
B5: Peptide 134 (peptide)
peptide: {C18 diacid}-[γGlu][AEEA][AEEA]GNH[Trp(7-Me)]AV[dA]HL[Nle]R-NH2
SMILES: CCCC[C@H](NC(=O)[C@H](CC(C)C)NC(=O)[C@H](Cc1c[nH]cn1)NC(=O)[C@@H](C)NC(=O)[C@@H](NC(=O)[C@H](C)NC(=O)[C@H](Cc1c[nH]c2c(C)cccc12)NC(=O)[C@H](Cc1c[nH]cn1)NC(=O)[C@H](CC(N)=O)NC(=O)CNC(=O)COCCOCCNC(=O)COCCOCCNC(=O)CC[C@H](NC(=O)CCCCCCCCCCCCCCCCC(=O)O)C(=O)O)C(C)C)C(=O)N[C@@H](CCCNC(=N)N)C(N)=O
B6: Peptide 11 (peptide)
peptide: Palmitoyl-[d(γGlu)][AEEA][AEEA]GNHW[Aib]V[dA]HL[Nle]-NH2
SMILES: CCCCCCCCCCCCCCCC(=O)N[C@H](CCC(=O)NCCOCCOCC(=O)NCCOCCOCC(=O)NCC(=O)N[C@@H](CC(N)=O)C(=O)N[C@@H](Cc1c[nH]cn1)C(=O)N[C@@H](Cc1c[nH]c2ccccc12)C(=O)NC(C)(C)C(=O)N[C@H](C(=O)N[C@H](C)C(=O)N[C@@H](Cc1c[nH]cn1)C(=O)N[C@@H](CC(C)C)C(=O)N[C@@H](CCCC)C(N)=O)C(C)C)C(=O)O
B7: Peptide 143 (peptide)
peptide: {C18 diacid}-[γGlu][AEEA][AEEA][dF]NHWAV[dA]HL[Nle]-NH2
SMILES: CCCC[C@H](NC(=O)[C@H](CC(C)C)NC(=O)[C@H](Cc1c[nH]cn1)NC(=O)[C@@H](C)NC(=O)[C@@H](NC(=O)[C@H](C)NC(=O)[C@H](Cc1c[nH]c2ccccc12)NC(=O)[C@H](Cc1c[nH]cn1)NC(=O)[C@H](CC(N)=O)NC(=O)[C@@H](Cc1ccccc1)NC(=O)COCCOCCNC(=O)COCCOCCNC(=O)CC[C@H](NC(=O)CCCCCCCCCCCCCCCCC(=O)O)C(=O)O)C(C)C)C(N)=O
B8: Peptide 140 (peptide)
peptide: {C18 diacid}-[γGlu][AEEA][AEEA]FNHWAV[βAla]HL[Nle]-NH2
SMILES: CCCC[C@H](NC(=O)[C@H](CC(C)C)NC(=O)[C@H](Cc1c[nH]cn1)NC(=O)CCNC(=O)[C@@H](NC(=O)[C@H](C)NC(=O)[C@H](Cc1c[nH]c2ccccc12)NC(=O)[C@H](Cc1c[nH]cn1)NC(=O)[C@H](CC(N)=O)NC(=O)[C@H](Cc1ccccc1)NC(=O)COCCOCCNC(=O)COCCOCCNC(=O)CC[C@H](NC(=O)CCCCCCCCCCCCCCCCC(=O)O)C(=O)O)C(C)C)C(N)=O
B9: Peptide 147 (peptide)
peptide: {C18 diacid}-[γGlu][AEEA][AEEA]GQHWAV[dA]HL[Nle]-NH2
SMILES: CCCC[C@H](NC(=O)[C@H](CC(C)C)NC(=O)[C@H](Cc1c[nH]cn1)NC(=O)[C@@H](C)NC(=O)[C@@H](NC(=O)[C@H](C)NC(=O)[C@H](Cc1c[nH]c2ccccc12)NC(=O)[C@H](Cc1c[nH]cn1)NC(=O)[C@H](CCC(N)=O)NC(=O)CNC(=O)COCCOCCNC(=O)COCCOCCNC(=O)CC[C@H](NC(=O)CCCCCCCCCCCCCCCCC(=O)O)C(=O)O)C(C)C)C(N)=O
B10: Peptide 136 (peptide)
peptide: {C18 diacid}-[γGlu][AEEA][AEEA][AEEA][AEEA]GAH[Trp(7-F)]AV[dA]HL[Nle]-NH2
SMILES: CCCC[C@H](NC(=O)[C@H](CC(C)C)NC(=O)[C@H](Cc1c[nH]cn1)NC(=O)[C@@H](C)NC(=O)[C@@H](NC(=O)[C@H](C)NC(=O)[C@H](Cc1c[nH]c2c(F)cccc12)NC(=O)[C@H](Cc1c[nH]cn1)NC(=O)[C@H](C)NC(=O)CNC(=O)COCCOCCNC(=O)COCCOCCNC(=O)COCCOCCNC(=O)COCCOCCNC(=O)CC[C@H](NC(=O)CCCCCCCCCCCCCCCCC(=O)O)C(=O)O)C(C)C)C(N)=O
B11: Peptide 137 (peptide)
peptide: {C18 diacid}-[γGlu][AEEA][AEEA][AEEA][AEEA]GRH[Trp(7-F)]AV[dA]HL[Nle][Sar]-NH2
SMILES: CCCC[C@H](NC(=O)[C@H](CC(C)C)NC(=O)[C@H](Cc1c[nH]cn1)NC(=O)[C@@H](C)NC(=O)[C@@H](NC(=O)[C@H](C)NC(=O)[C@H](Cc1c[nH]c2c(F)cccc12)NC(=O)[C@H](Cc1c[nH]cn1)NC(=O)[C@H](CCCNC(=N)N)NC(=O)CNC(=O)COCCOCCNC(=O)COCCOCCNC(=O)COCCOCCNC(=O)COCCOCCNC(=O)CC[C@H](NC(=O)CCCCCCCCCCCCCCCCC(=O)O)C(=O)O)C(C)C)C(=O)N(C)CC(N)=O
B12: Peptide 138 (peptide)
peptide: {C20 diacid}-[γGlu][AEEA][AEEA]GNH[Trp(7-F)]AV[dA]HL[Nle][Sar]-NH2
SMILES: CCCC[C@H](NC(=O)[C@H](CC(C)C)NC(=O)[C@H](Cc1c[nH]cn1)NC(=O)[C@@H](C)NC(=O)[C@@H](NC(=O)[C@H](C)NC(=O)[C@H](Cc1c[nH]c2c(F)cccc12)NC(=O)[C@H](Cc1c[nH]cn1)NC(=O)[C@H](CC(N)=O)NC(=O)CNC(=O)COCCOCCNC(=O)COCCOCCNC(=O)CC[C@H](NC(=O)CCCCCCCCCCCCCCCCCCC(=O)O)C(=O)O)C(C)C)C(=O)N(C)CC(N)=O
B13: Peptide 149 (peptide)
peptide: {C20 diacid}-[γGlu][AEEA][AEEA]GNHWAV[dA]HL[Nle]-NH2
SMILES: CCCC[C@H](NC(=O)[C@H](CC(C)C)NC(=O)[C@H](Cc1c[nH]cn1)NC(=O)[C@@H](C)NC(=O)[C@@H](NC(=O)[C@H](C)NC(=O)[C@H](Cc1c[nH]c2ccccc12)NC(=O)[C@H](Cc1c[nH]cn1)NC(=O)[C@H](CC(N)=O)NC(=O)CNC(=O)COCCOCCNC(=O)COCCOCCNC(=O)CC[C@H](NC(=O)CCCCCCCCCCCCCCCCCCC(=O)O)C(=O)O)C(C)C)C(N)=O
B14: Peptide 142 (peptide)
peptide: {C18 diacid}-[γGlu][AEEA][AEEA]GNHWAV[βAla]HL[Nle]-NH2
SMILES: CCCC[C@H](NC(=O)[C@H](CC(C)C)NC(=O)[C@H](Cc1c[nH]cn1)NC(=O)CCNC(=O)[C@@H](NC(=O)[C@H](C)NC(=O)[C@H](Cc1c[nH]c2ccccc12)NC(=O)[C@H](Cc1c[nH]cn1)NC(=O)[C@H](CC(N)=O)NC(=O)CNC(=O)COCCOCCNC(=O)COCCOCCNC(=O)CC[C@H](NC(=O)CCCCCCCCCCCCCCCCC(=O)O)C(=O)O)C(C)C)C(N)=O
B15: Peptide 145 (peptide)
peptide: {C18 diacid}-[γGlu][AEEA][AEEA]RNHWAV[dA]HL[Nle]-NH2
SMILES: CCCC[C@H](NC(=O)[C@H](CC(C)C)NC(=O)[C@H](Cc1c[nH]cn1)NC(=O)[C@@H](C)NC(=O)[C@@H](NC(=O)[C@H](C)NC(=O)[C@H](Cc1c[nH]c2ccccc12)NC(=O)[C@H](Cc1c[nH]cn1)NC(=O)[C@H](CC(N)=O)NC(=O)[C@H](CCCNC(=N)N)NC(=O)COCCOCCNC(=O)COCCOCCNC(=O)CC[C@H](NC(=O)CCCCCCCCCCCCCCCCC(=O)O)C(=O)O)C(C)C)C(N)=O

Molecular target: human GRP receptor (human, UniProt P30550 1-384)
Assay: cell-based or functional assay

Sequence of human GRP receptor (P30550 whole entry): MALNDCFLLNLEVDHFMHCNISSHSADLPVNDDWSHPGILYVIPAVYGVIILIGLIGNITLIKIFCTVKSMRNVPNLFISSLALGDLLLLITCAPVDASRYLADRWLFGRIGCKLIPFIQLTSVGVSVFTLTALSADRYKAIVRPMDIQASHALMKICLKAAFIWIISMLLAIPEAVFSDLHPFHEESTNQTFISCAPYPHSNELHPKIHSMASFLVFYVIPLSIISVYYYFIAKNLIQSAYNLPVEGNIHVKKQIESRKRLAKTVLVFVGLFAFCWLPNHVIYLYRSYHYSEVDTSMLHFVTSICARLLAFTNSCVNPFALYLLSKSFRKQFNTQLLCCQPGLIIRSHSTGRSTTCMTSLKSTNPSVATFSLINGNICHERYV

Row | Binder | hIP1 GRPR EC50 [nM]
1 | B1 | > 10000
2 | B2 | 4.09
3 | B3 | 5.99
4 | B4 | 7.72
5 | B5 | > 10000
6 | B6 | 3.2
7 | B7 | 10.7
8 | {C18 diacid}-[γGlu][AEEA][AEEA]GNHWAV[dA]HL[Nle] [Peptide 146] | 279
9 | B8 | 4.8
10 | B9 | 5.72
11 | B10 | 40.5
12 | B11 | 488
13 | B12 | 81.8
14 | B13 | 1.89
15 | {C20 diacid}-[γGlu][AEEA][AEEA]GNHWAV[dA]HL[Nle] [Peptide 148] | 126
16 | B14 | 3.55
17 | B15 | 5.2
